In article PMC3963918, “CCHCR1 Interacts Specifically with the E2 Protein of Human Papillomavirus Type 16 on a Surface Overlapping BRD4 Binding” (PLoS ONE, 2014) one finds ratio to parent data, which are given here for ten variants.

B1: unnamed (parent)
chain 1: METLCQRLNVCQDKILTHYENDSTDLRDHIDYWKHMRLECAIYYKAREMGFKHINHQVVPTLAVSKNKALQAIELQLTLETIYNSQYSNEKWTLQDVSLEVYLTAPTGCIKKHGYTVEVQFDGDICNTMHYTNWTHIYICEEASVTVVEGQVDYYGLYYVHEGIRTYFVQFKDDAEKYSKNKVWEVHAGGQVILCPTSVFSSNEVSSPEIIRQHLANHPAATHTKAVALGTEETQTTIQRPRSEPDTGNPCHTTKLLHRDSVDSAPILTAFNSSHKGRINCNSNTTPIVHLKGDANTLKCLRYRFKKHCTLYTAVSSTWHWTGHNVKHKSAIVTLTYDSEWQRDQFLSQVKIPKTITVSTGFMSI
chain 2: MDQNNSLPPYAQGLASPQGAMTPGIPIFSPMMPYGTGLTPQPIQNTNSLSILEEQQRQQQQQQQQQQQQQQQQQQQQQQQQQQQQQQQQQQQQQQAVAAAAVQQSTSQQATQGTSGQAPQLFHSQTLTTAPLPGTTPLYPSPMTPMTPITPATPASESSGIVPQLQNIVSTVNLGCKLDLKTIALRARNAEYNPKRFAAVIMRIREPRTTALIFSSGKMVCTGAKSEEQSRLAARKYARVVQKLGFPAKFLDFKIQNMVGSCDVKFPIRLEGLVLTHQQFSSYEPELFPGLIYRMIKPRIVLLIFVSGKVVLTGAKVRAEIYEAFENIYPILKGFRKTT
B2: unnamed (parent)
chain 1: B1 chain 1
chain 2: KAGRAEAEGLRAALAGAEVVRKNLEEGSQRELEEVQRLHQEQLSSLTQAHEEALSSLTSKAEGLEKSLSSLETRRAGEAKELAEAQREAELLRKQLSKTQEDLEAQVTLVENLRKYVGEQVPSEVHSQTWELERQKLLETMQHLQEDRDSLHATAELLQVRVQSLTHILALQEEELTRKVQPSDSLEPEFTRKCQSLLNRWREKVFALMVQLKAQELEHSDSVKQLKGQVASLQEKVTSQSQEQAILQRSLQDKAAEVEVERMGAKGLQLELSRAQEARRRWQQQTASAEEQLRLVVNAVSSSQIWLETTMAKVEGAAAQLPSLNNRLSYAVRKVHTIRGLIARKLALAQLRQESCPLPPPVTDVSLELQQLREERNRLDAELQLSARLIQQEVGRAREQGEAERQQLSKVAQQLEQELQQTQESLASLGLQLEVARQGQQESTEEAASLRQELTQQQELYGQALQEKVAEVETRLREQLSDTERRLNEARREHAKAVVSLRQIQRRAAQEKERSQELRRLQEEARKEEGQRLARRLQELERDKNLMLATLQQEGLLSRYKQQRLLTVLPSLLDKKKSVVSSPRPPECSASAPVAAAVPTRESIKGSLSVLLDDLQDLSEAISKEEAVCQGDNLDRCSSSNPQMSS

The variants in one assay derive from B1. In words: GPCA. The note with it: with partner chain of the complex shown;; read off a plot.
In the case of chain 1 R37A, the ratio to parent turned out to be 1.1. Still for that read-out and setting: the result for chain 1 E39A reads 1.2; that for chain 1 I73A, 0.97. The same measure, in the same setting: as for chain 1 N181T, the figure is 0.95; as for chain 1 R27D, 0.91.

The next assay covers variants of B2. Description: GPCA. The note with it: with partner chain of the complex shown;; read off a plot.
For the variant chain 1 R37A, the ratio to parent was 0.06. On to chain 1 E39A, for which the ratio to parent was 0.92. Same read-out and setting: as for chain 1 R27D, the figure is 0.66; as for chain 1 N181T, 0.93; as for chain 1 I73A, 0.11.
